We go through 2 molecules from patent US20170096487A1 (VENTANA MEDICAL SYSTEMS, published 2017).

One assay deals with T1, HER4 (UniProt Q15303 26-1308, limits assumed).
T1 construct: whole, on cells
Briefly: IHC on FFPE transfected HEK293 cells, Ventana Benchmark XT. As for the experimental part: (§1) The suitability of the newly developed HER3 monoclonal antibodies MAK<humanHER3> M-7.2.42 and MAK<humanHER3> M-7.3.8 was shown using FFPE cell line controls. Therefore HER1, HER2, HER3 or HER4 transfected or untransfected HEK293 cells, respectively, were fixed with 4% PBS buffered formaldehyde and were subsequently embedded in paraffin.
(§2) All staining procedures were performed on the Ventana Benchmark XT automated IHC stainer using Ventana buffers and reagents, i.e., amongst others, the standard cell conditioning 1 (CC1) reagent for sample preparation and ultraView DAB as detection system.
(§3) As obvious from FIG. 3 the newly developed HER3 monoclonal antibodies MAK<humanHER3> M-7.2.42 and MAK<humanHER3> M-7.3.8 show specific membrane staining only on HER3 transfected cells. HER1, HER2 and HER4-transfected cells and control cells are negative. HER3 monoclonal antibodies MAK<humanHER3> M-7.2.42 and MAK<humanHER3> M-7.3.8 show good IHC-staining with HER3 transfected cells if used according to standard protocols on the Ventana Benchmark XT analyzer (see FIG. 3, HER3 captioned cell staining).

A further assay addresses T2, HER2 (UniProt P04626 23-1255, limits assumed).
T2 construct: whole, on cells
Described as above. As for the experimental part: as §1, §2, §3

In assay [1] the target is T3, biotinylated HER3 peptide (screening peptide with a sequence corresponding to the immunogen).
T3 construct: Synthetic peptide of HER3; also called HER3 antigen peptide; peptide-graft
Briefly: Biacore A100 SPR, antibody captured from hybridoma supernatant on anti-mouse Fc, streptavidin-grafted biotinylated HER3 peptide as analyte, 25 C. As for the experimental part:
For selection of suitable antibodies, a kinetic screening was performed on hybridoma culture supernatants. The measurements were done using Biacore SPR technology. The CM5 series S sensor chip was mounted into an A100 instrument (GE Healthcare, Biacore) and was hydrodynamically addressed in HBSN buffer (10 mM HEPES pH 7.4, 150 mM NaCl) according to the manufacturer's instructions. The system buffer was HBS-ET (10 mM HEPES pH 7.4, 150 mM NaCl, 0.05% TWEEN 20). The sample buffer was the system buffer supplemented with 1 mg/ml CMD (Carboxymethyldextrane, Sigma #86524). The system was driven at 25° C.
10000 RU RAMIgGFC (relative units of rabbit-anti-mouse F(c)gamma-fragment of the respective mouse immunoglobulin G subclass/Jackson Laboratories) were immobilized according to the manufacturer's instructions using EDC/NHS chemistry on the flow cells FC1 (anti-mouse F(c)gamma of subclass 1), FC2, FC3 and FC4, respectively, on the sensitive spots 1, 2, 4 and 5 on each flow cell. The spots were deactivated using 1M ethanolamine.
The binding activity of antibodies against the HER3 peptide was kinetically tested. Antibodies were captured by a 1 min injection at 10 μl/min of crude hybridoma supernatants diluted 1:3 in sample buffer. Biotinylated Her-3 peptides were carefully singly grafted on streptavidin to enlarge the molecular weight of the complexes and to increase the mass sensitivity of the system. Since the antigen complex dissociation kd is independent of the analyte injection concentration, this is a legal method to increase the sensitivity of the system.

Assay [2] addresses T4, HER1 (UniProt P00533 25-1210, limits assumed).
T4 construct: whole, on cells; also called EGFR
Briefly: Western blot on lysates of transfected HEK293 cells, RT and 37 C. As for the experimental part: Lysates were prepared from several HEK293 control cell lines. The cells were transiently transfected with plasmids coding for HER1, HER2, HER3 or HER4. HEK293 cells transfected with the mammalian expression vector pRK5 were used as negative control. For western blotting 10 μg protein lysates were loaded per lane on 4-12% NuPage SDS gels (Invitrogen). Western blotting was performed according to standard protocols with standard NuPage buffers and reagents (Invitrogen). After blocking the membrane was incubated with MAK<humanHER3> M-7.2.42, MAK<humanHER3> M-7.3.8 or the HER3 monoclonal antibody DAK-H3-IC from Dako. MAK<humanHER3> M-7.2.42 and MAK<humanHER3> M-7.3.8 were used at a concentration of lng/ml. Primary antibody incubation was performed for 60 min at RT and at 37° C. HRP-conjugated anti-mouse Fab was used as secondary antibody. The dilution of DAK-H3-IC antibody was made as recommended by its manufacturer and the choice of secondary (detection) antibody was adapted as required. The membrane was developed with ECL (Amersham) and exposed to an x-ray film.

Assay [3] deals with T4, HER1. Briefly: IHC on FFPE transfected HEK293 cells, Ventana Benchmark XT. As for the experimental part: as §1, §2, §3

Where a chain is given by its changes, count along the chain named.

T1 sequence (Q15303 26-1308 limits assumed): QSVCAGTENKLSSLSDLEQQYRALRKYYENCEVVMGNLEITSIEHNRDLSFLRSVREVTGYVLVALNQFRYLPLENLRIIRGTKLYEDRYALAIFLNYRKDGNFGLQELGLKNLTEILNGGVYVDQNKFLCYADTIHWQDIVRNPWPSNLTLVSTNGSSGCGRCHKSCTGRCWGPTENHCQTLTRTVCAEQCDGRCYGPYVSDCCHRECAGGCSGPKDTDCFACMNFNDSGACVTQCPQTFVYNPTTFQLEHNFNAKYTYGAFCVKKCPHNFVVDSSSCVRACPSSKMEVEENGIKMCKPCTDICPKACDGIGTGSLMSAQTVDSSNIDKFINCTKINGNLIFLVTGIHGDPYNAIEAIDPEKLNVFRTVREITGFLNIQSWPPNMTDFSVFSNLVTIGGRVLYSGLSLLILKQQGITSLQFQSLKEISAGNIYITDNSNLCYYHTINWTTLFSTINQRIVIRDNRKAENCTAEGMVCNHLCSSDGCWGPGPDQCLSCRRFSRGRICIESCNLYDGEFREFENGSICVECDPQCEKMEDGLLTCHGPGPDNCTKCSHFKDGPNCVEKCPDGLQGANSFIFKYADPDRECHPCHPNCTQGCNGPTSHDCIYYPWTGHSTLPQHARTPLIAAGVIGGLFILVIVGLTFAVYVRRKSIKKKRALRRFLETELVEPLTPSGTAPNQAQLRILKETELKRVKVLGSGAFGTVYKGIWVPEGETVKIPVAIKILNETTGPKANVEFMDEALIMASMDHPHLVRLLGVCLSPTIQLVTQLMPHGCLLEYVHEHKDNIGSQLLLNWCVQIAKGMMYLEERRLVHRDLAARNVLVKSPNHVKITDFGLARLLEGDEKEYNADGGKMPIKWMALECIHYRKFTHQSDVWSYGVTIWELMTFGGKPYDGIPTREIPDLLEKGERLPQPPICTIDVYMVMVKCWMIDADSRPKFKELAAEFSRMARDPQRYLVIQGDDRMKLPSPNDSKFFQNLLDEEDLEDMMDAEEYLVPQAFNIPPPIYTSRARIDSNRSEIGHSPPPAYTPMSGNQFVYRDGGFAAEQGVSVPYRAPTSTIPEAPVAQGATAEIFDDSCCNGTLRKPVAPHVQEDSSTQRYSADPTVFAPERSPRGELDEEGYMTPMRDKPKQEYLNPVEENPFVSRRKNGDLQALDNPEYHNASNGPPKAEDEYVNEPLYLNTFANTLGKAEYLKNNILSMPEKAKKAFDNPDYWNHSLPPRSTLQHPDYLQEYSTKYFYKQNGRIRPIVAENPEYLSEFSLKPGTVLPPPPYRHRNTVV

B1: MAK<humanHER3> M-7.2.42 (antibody, V domains shown)
VH: EVQLLQSGPELVKPGASVKMSCKASGYTFTDYNLHWVKQSHGRTLEWIGYFNPYNGGTFYTQKFKDKATLTINKSSSTAYMELRSLTSEDSAVYYCTRRYFDGSSYFDYWGQGTTLTVSS
VL: DVLMTQTPLSLPVSLGDQASISCRSSQTIVHSNGNTYLEWYVQKPGQSLKLLIYKVSNRFSGVPDRFSGSGSGTDFTLKISRVEAEDLGVYYCFQGSHVPRAFGGGTKLEIKR
notes: Tested as crude hybridoma supernatant in the Biacore screening; also called HER3 monoclonal antibody MAK<humanHER3> M-7.2.42
As to B1, the binding result in the assay with HER4 is listed as “no binding”; in the assay with HER2 it was “no binding”; with HER1 [2], “no binding (tested: lng/ml (so in the source))”. This molecule also gave a koff in assay [1] of 4.26e-05 s⁻¹. For the same molecule, the t½ diss in assay [1] worked out at 271 min.

B2: MAK<humanHER3> M-7.3.8 (antibody, V domains shown)
VH: B1 VH with L5Q, V12A, R43K, P53T, T58I, Q112R
VL: B1 VL with T7I, T28S, L49P, V99A, A102T
notes: Tested as crude hybridoma supernatant in the Biacore screening; also called antibody 7.3.8; HER3 monoclonal antibody MAK<humanHER3> M-7.3.8
As for B2, the binding result with HER4, with HER1 [3] and in the assay with HER2 was “no binding” throughout. The off-rate constant (koff) in assay [1] was found to be 2.66e-05 s⁻¹. The same molecule came in with a t½ diss in assay [1] of 435 min.
